Laboratory results published in patent publication US20230134571A1 (INTERNATIONAL AIDS VACCINE INITIATIVE, published 2023).
Residue numbers refer to the chain shown, from its start.

B1: ePGDM5 (antibody, V domains shown)
VH: QAQLVQSGPEVRKPGTSVKVSCKNPGNTLTTYDLHWVRQVPGQGLQWMGWISHEGDKKVIVERFKAKVTIDWDRSTNTAYLQLSGLTSEDTAVYYCAKGSKHRLRDYALYDEDGALNWAVDVDYLANLEFWGQGTAVTVSS
VL: DFVLTQSPLSLSVTPGESASISCKSDHSLQHGDRNNYLAWYVQKPGRSPQLLIDLASERASGVPDRFSGSGSRKDFTLKIDRVEAEDVGTYYCMQGRESPWTFGQGTKVDIK
B2: PGDM1400 (antibody, V domains shown)
VH: B1 VH with A2V, Q3H, V5T, N24A, T30K, Q39S, E89G, E112D, A126S
VL: B1 VL with L9H, D26S, Q30I, D54Y, E58S, R73D, D81S, A85T
B3: ePGDM13 (antibody, V domains shown)
VH: B1 VH
VL: B1 VL with F2I, D26S, I53L, R73E, D81S, A85T

Target: HIV Env, isolate CNE21 (HIV)
Assay: cell-based or functional assay

Row | Binder | IC80 (µg/ml) with constrains
1 | B1 | 0.007 µg/mL
2 | B2 | 0.011 µg/mL
3 | B3 | 0.006 µg/mL

Target: HIV Env, isolate 89-F1_2_25 (HIV)
Assay: cell-based or functional assay

Row | Binder | IC80 (µg/ml) with constrains
4 | B1 | 0.006 µg/mL
5 | B2 | 0.013 µg/mL
6 | B3 | 0.006 µg/mL

Target: HIV Env, isolate 6244_13_B5_4576 (HIV)
Assay: cell-based or functional assay

Row | Binder | IC80 (µg/ml) with constrains
7 | B1 | 75.6 µg/mL
8 | B2 | > 100 µg/mL
9 | B3 | > 100 µg/mL

Target: HIV Env, isolate CNE19 (HIV)
Assay: cell-based or functional assay

Row | Binder | IC80 (µg/ml) with constrains
10 | B1 | 0.012 µg/mL
11 | B2 | 0.019 µg/mL
12 | B3 | 0.013 µg/mL

Target: HIV Env, isolate CNE20 (HIV)
Assay: cell-based or functional assay

Row | Binder | IC80 (µg/ml) with constrains
13 | B1 | 0.015 µg/mL
14 | B2 | 0.021 µg/mL
15 | B3 | 0.015 µg/mL

Target: HIV Env, isolate 1006_11_C3_1601 (HIV)
Assay: cell-based or functional assay

Row | Binder | IC80 (µg/ml) with constrains
16 | B1 | 1.89 µg/mL
17 | B2 | 7.43 µg/mL
18 | B3 | 3.3 µg/mL

Target: HIV Env, isolate 6480.v4.c25 (HIV)
Assay: cell-based or functional assay

Row | Binder | IC80 (µg/ml) with constrains
19 | B1 | > 100 µg/mL
20 | B2 | > 100 µg/mL
21 | B3 | > 100 µg/mL

Target: HIV Env, isolate RHPA4259.7 (HIV)
Assay: cell-based or functional assay

Row | Binder | IC80 (µg/ml) with constrains
22 | B1 | 1.86 µg/mL
23 | B2 | 1.96 µg/mL
24 | B3 | 1.43 µg/mL

Target: HIV Env, isolate ZM233M.PB6 (HIV)
Assay: cell-based or functional assay

Row | Binder | IC80 (µg/ml) with constrains
25 | B1 | 0.007 µg/mL
26 | B2 | 0.007 µg/mL
27 | B3 | 0.006 µg/mL

Target: HIV Env, isolate 6811.v7.c18 (HIV)
Assay: cell-based or functional assay

Row | Binder | IC80 (µg/ml) with constrains
28 | B1 | > 100 µg/mL
29 | B2 | > 100 µg/mL
30 | B3 | > 100 µg/mL

Target: HIV Env, isolate Ce1172_H1 (HIV)
Assay: cell-based or functional assay

Row | Binder | IC80 (µg/ml) with constrains
31 | B1 | 0.065 µg/mL
32 | B2 | 0.872 µg/mL
33 | B3 | 0.242 µg/mL

Target: HIV Env, isolate X1193_C1 (HIV)
Assay: cell-based or functional assay

Row | Binder | IC80 (µg/ml) with constrains
34 | B1 | 0.156 µg/mL
35 | B2 | 0.374 µg/mL
36 | B3 | 0.381 µg/mL

Target: HIV Env, isolate T263-8 (HIV)
Assay: cell-based or functional assay

Row | Binder | IC80 (µg/ml) with constrains
37 | B1 | 0.076 µg/mL
38 | B2 | 0.081 µg/mL
39 | B3 | 0.101 µg/mL

Target: HIV Env, isolate X1254_C3 (HIV)
Assay: cell-based or functional assay

Row | Binder | IC80 (µg/ml) with constrains
40 | B1 | 0.869 µg/mL
41 | B2 | > 100 µg/mL
42 | B3 | 2.07 µg/mL

Target: HIV Env, isolate HIV-001428-2.42 (HIV)
Assay: cell-based or functional assay

Row | Binder | IC80 (µg/ml) with constrains
43 | B1 | 0.013 µg/mL
44 | B2 | 0.054 µg/mL
45 | B3 | 0.011 µg/mL

Target: HIV Env, isolate CAP45.2.00.G3 (HIV)
Assay: cell-based or functional assay

Row | Binder | IC80 (µg/ml) with constrains
46 | B1 | 0.004 µg/mL
47 | B2 | 0.005 µg/mL
48 | B3 | 0.007 µg/mL
